The values below are quoted from earlier work in article PMC7035337.

In general, Kd refers to a measure of binding affinity in units of concentration.

The data set deals with vimentin (Homo sapiens) (UniProt P08670).
vimentin (Homo sapiens), sequence (P08670 2-466): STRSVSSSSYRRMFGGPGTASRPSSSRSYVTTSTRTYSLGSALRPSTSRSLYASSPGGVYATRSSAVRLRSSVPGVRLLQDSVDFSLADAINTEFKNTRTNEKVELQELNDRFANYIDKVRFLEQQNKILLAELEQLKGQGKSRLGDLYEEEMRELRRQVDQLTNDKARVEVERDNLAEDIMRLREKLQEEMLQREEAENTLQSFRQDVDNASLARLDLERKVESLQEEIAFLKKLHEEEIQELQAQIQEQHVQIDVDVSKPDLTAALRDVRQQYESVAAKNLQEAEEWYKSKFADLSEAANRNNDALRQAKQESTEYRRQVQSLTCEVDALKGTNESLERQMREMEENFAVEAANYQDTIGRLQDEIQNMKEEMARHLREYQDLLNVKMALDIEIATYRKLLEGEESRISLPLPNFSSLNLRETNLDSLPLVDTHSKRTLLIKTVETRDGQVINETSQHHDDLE

envoplakin PRD, sequence (Q92817 1822-2014): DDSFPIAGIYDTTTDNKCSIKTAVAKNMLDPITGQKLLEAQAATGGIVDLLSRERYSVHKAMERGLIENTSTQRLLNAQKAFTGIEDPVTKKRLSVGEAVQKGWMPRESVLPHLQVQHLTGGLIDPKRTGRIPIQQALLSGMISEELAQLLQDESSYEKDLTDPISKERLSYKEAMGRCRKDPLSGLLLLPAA

envoplakin PRD (from UniProt Q92817): the Kd is 19.1 µM.
